Data published in PMC2996723 (Journal of molecular biology, 2009).
Where “and” joins values, the source holds several entries; their conditions need not be identical. Equal values may be shown once.

B1: Rous sarcoma virus (RSV) CA protein, wild type (natural protein)
chain: PVVIKTEGPAWTPLEPKLITRLADTVRTKGLRSPITMAEVEALMSSPLLPHDVTNLMRVILGPAPYALWMDAWGVQLQTVIAAATRDPRHPANGQGRGERTNLNRLKGLADGMVGNPQGQAALLRPGELVAITASALQAFREVARLAEPAGPWADIMQGPSESFVDFANRLIKAVEGSDLPPSARAPVIIDCFRQKSQPDIQQLIRTAPSTLTTPGEIIKYVLDRQKTAPLTDQGIA

Legend:
[1] = biological target: HIV CA protein (p24) (human immunodeficiency virus (HIV)); assay: co-sedimentation
[2] = biological target: the molecule itself; assay: SEC-MALS

Molecule | critical concentration [1] [µM] | stoichiometry N [2]
HIV CA protein (p24) (natural protein) | 10 | 
B1 |  | 2 and 3 and 4
